Experiments:
Assay in all cases: IP-MS (HA-IP, label-free LC/MS-MS)
USP5 = settings: HA-tagged Hop exogenously overexpressed in KO1 cells; n = 2; right graph; read off a plot
PSMC5 = settings: HA-tagged Hop exogenously overexpressed in KO1 cells; n = 2; left graph; read off a plot
UBA1 = settings: HA-tagged Hop exogenously overexpressed in KO1 cells; n = 2; right graph; read off a plot
HSPA4L = settings: HA-tagged Hop exogenously overexpressed in KO1 cells; n = 2; read off a plot
HSPA5 = settings: HA-tagged Hop exogenously overexpressed in KO1 cells; n = 2; read off a plot
PSMD13 = settings: HA-tagged Hop exogenously overexpressed in KO1 cells; n = 2; left graph; read off a plot
HUWE1 = settings: HA-tagged Hop exogenously overexpressed in KO1 cells; n = 2; right graph; read off a plot
PSMD12 = settings: HA-tagged Hop exogenously overexpressed in KO1 cells; n = 2; left graph; read off a plot
PSMC1 = settings: HA-tagged Hop exogenously overexpressed in KO1 cells; n = 2; left graph; read off a plot
DNAJA1 = settings: HA-tagged Hop exogenously overexpressed in KO1 cells; n = 2; read off a plot
UBE2N;UBE2NL = settings: HA-tagged Hop exogenously overexpressed in KO1 cells; n = 2; right graph; read off a plot
AHSA1 = settings: HA-tagged Hop exogenously overexpressed in KO1 cells; n = 2; read off a plot
HSPH1 = settings: HA-tagged Hop exogenously overexpressed in KO1 cells; n = 2; read off a plot
HSPA4 = settings: HA-tagged Hop exogenously overexpressed in KO1 cells; n = 2; read off a plot
PSMC3 = settings: HA-tagged Hop exogenously overexpressed in KO1 cells; n = 2; left graph; read off a plot
PSMD3 = settings: HA-tagged Hop exogenously overexpressed in KO1 cells; n = 2; left graph; read off a plot
CDC37 = settings: HA-tagged Hop exogenously overexpressed in KO1 cells; n = 2; read off a plot
PSMC4 = settings: HA-tagged Hop exogenously overexpressed in KO1 cells; n = 2; left graph; read off a plot
USP7 = settings: HA-tagged Hop exogenously overexpressed in KO1 cells; n = 2; right graph; read off a plot
HSPA6;HSPA7 = settings: HA-tagged Hop exogenously overexpressed in KO1 cells; n = 2; read off a plot
DNAJA2 = settings: HA-tagged Hop exogenously overexpressed in KO1 cells; n = 2; read off a plot
USP10 = settings: HA-tagged Hop exogenously overexpressed in KO1 cells; n = 2; right graph; read off a plot
PSMC2 = settings: HA-tagged Hop exogenously overexpressed in KO1 cells; n = 2; left graph; read off a plot
PSMD11 = settings: HA-tagged Hop exogenously overexpressed in KO1 cells; n = 2; left graph; read off a plot

**Q.** What does the source list for “HA-tagged WT Hop (from UniProt P31948) K8A; K229A”?
**A.** other: normalized enrichment (log2) WT Hop / K8A,K229A Hop (USP5): 2.3 log2; other: normalized enrichment (log2) WT Hop / K8A,K229A Hop (PSMC5): 1.3 log2; other: normalized enrichment (log2) WT Hop / K8A,K229A Hop (UBA1): 0.85 log2; other: normalized enrichment (log2) WT Hop / K8A,K229A Hop (HSPA4L): 3 log2; other: normalized enrichment (log2) WT Hop / K8A,K229A Hop (HSPA5): 2.5 log2; other: normalized enrichment (log2) WT Hop / K8A,K229A Hop (PSMD13): 2.1 log2; other: normalized enrichment (log2) WT Hop / K8A,K229A Hop (HUWE1): 2.7 log2; other: normalized enrichment (log2) WT Hop / K8A,K229A Hop (PSMD12): 3.1 log2; other: normalized enrichment (log2) WT Hop / K8A,K229A Hop (PSMC1): 0.95 log2; other: normalized enrichment (log2) WT Hop / K8A,K229A Hop (DNAJA1): 3.9 log2; other: normalized enrichment (log2) WT Hop / K8A,K229A Hop (UBE2N;UBE2NL): 0.8 log2; other: normalized enrichment (log2) WT Hop / K8A,K229A Hop (AHSA1): 3 log2; other: normalized enrichment (log2) WT Hop / K8A,K229A Hop (HSPH1): 4 log2; other: normalized enrichment (log2) WT Hop / K8A,K229A Hop (HSPA4): 1.7 log2; other: normalized enrichment (log2) WT Hop / K8A,K229A Hop (PSMC3): 1 log2; other: normalized enrichment (log2) WT Hop / K8A,K229A Hop (PSMD3): 1.5 log2; other: normalized enrichment (log2) WT Hop / K8A,K229A Hop (CDC37): 3.2 log2; other: normalized enrichment (log2) WT Hop / K8A,K229A Hop (PSMC4): 0.25 log2; other: normalized enrichment (log2) WT Hop / K8A,K229A Hop (USP7): 2.9 log2; other: normalized enrichment (log2) WT Hop / K8A,K229A Hop (HSPA6;HSPA7): 4.5 log2; other: normalized enrichment (log2) WT Hop / K8A,K229A Hop (DNAJA2): 4.3 log2; other: normalized enrichment (log2) WT Hop / K8A,K229A Hop (USP10): 2.5 log2; other: normalized enrichment (log2) WT Hop / K8A,K229A Hop (PSMC2): 0.65 log2; other: normalized enrichment (log2) WT Hop / K8A,K229A Hop (PSMD11): 1.7 log2

Source: article PMC7688965
